The data set relates to C[C@@H]1O[C@@H](Oc2ccc([N+](=O)[O-])cc2)[C@H](O)[C@H](O)[C@H]1O. Put plainly: purified protein. The conditions noted are these: pH 6.5, 65 °C, no additives.

The term Km denotes the substrate concentration at which the rate is half of its maximum. Turning to “α-L-rhamnosidase from A. terreus (Rha; synthetic gene MRha; RASE) (Aspergillus terreus)”, the Km is 481 ± 10 µM.

Source of the values: article PMC5327507, “Enhancing the thermostability of α-L-rhamnosidase from Aspergillus terreus and the enzymatic conversion of rutin to isoquercitrin by adding sorbitol” (BMC Biotechnology, 2017).
